Measured values reported in publication PMC6774351.

Target: Alexa488-labelled NLRP3 (human)
Experiment: MST

Kd: 78.9 nM
Substance: NEK7 (wild type; NEK7 monomer) (from UniProt Q8TDX7 1-302) (enzyme)
